For ten sequences, protein production results are on record in a protein production outcome set (Wang et al. 2014).

A short description of the data set: label from the status in PepcDB records.
Take “MTSDIKAILEQVVISPDVPIAEAIAQLDRAGTGSLVVCSADKKLYGLLTDGDVRRALLKAVDMGAPCGDIANRKPVITFVPLLPIEALRLMNHHDINHLPVLDAEGRVVDFLLRRDLVAEDELAARARRRLDSVVIPCSASIAEAIAQLDRAGTGALVLCSEGDRLHGLLTDGDIRRAVLRGISLDAPCQDVASRRPVTVEPSFSAAQALHLMNQHDINHLPVVDDTGRVVDFLLRRDLIADDQLNLSAVVMAGGYGKRLLPLTEQVPKPMLPVGDRPLLERTIDQLRRSGIREVNLTTHYLPDSIVEHFGDGDSFGVKLNYLKEDHPLGTAGGLKLMKKASDPFLVMNGDILTGVPFQEMFAYHRKNGAEITVGVRKYEVQVPFGVVECDDVRITGLKEKPSLTFFINAGIYLLEPSVCDLIPEGERFDMTDLIQKLLDEGRSVVSFPIMEYWLDVGRHEDYQKAQEDVRSGKIQLEHHHHHH”: the protein production result is “failed”.

Consider “MTSDQPIRWGIIGPGTIARTFADGVAHSRTGKLVAIATRNPSKPGLAENFPGARIVNGYEALLSDPEVDAVYISVPHTGHAEWAIKAARAGKHILVEKPIALSAYDAEAVYYEAKKAGVFAGEAFMYRVHPQTEKLVELIKSGVIGTLRIIRSSFGFNMGSYRPEHRLFANDTAGGGILDVGGYPVSMARLIAGAAEGKAFLDPEKVSGVAHLGESGVDEWASAVLKFPNEIIAEVSCSIMAQQDNVLRIIGSEGRIEVADFWFASGHKGGVGKIEIFKGGKQETIEVKEERWLYSFEADAAGDAIRAGRTEFSAPGMGWTDSIANLRVLDQWRASVGLEYGVEKAAKRTNNIAGGAVTRGNSIRQRQIPGISKPASVVTLGFEFFPNFAAASLTLDAFYEAGGNAFDTAYVYGAGKTEAIFGDWHTSRNVPREEIVLIGKGAHSPLCYPDMIAKQLDQSLARLKTDYVDIYFMHRDNTDVPVGEFVDAMDAEVKRGRIRGIFGGSNWTRARFDEAIAYAEKNGKTAPAALSNNFSLAEMLDPIWAGCVAASDDDWKKWLNEKQIPNFAWSSQGRGFFTDRAGRDKRDDEEIVRVWYSERNFGRRDRAIELANKLGRNPIHIALAYVIAQPFPVIPLIGPRTVAELEDSLSALDIRLTPDEVKWLEG”, for which the protein production entry is recorded as “failed”.

Regarding “MTSITPVTLANCEDEPIHVPGAIQPHGALVTLRADGMVLAASENIQALLGFVASPGSYLTQEQVGPEVLRMLEEGLTGNGPWSNSVETRIGEHLFDVIGHSYKEVFYLEFEIRTADTLSITSFTLNAQRIIAQVQLHNDTASLLSNVTDELRRMTGYDRVMAYRFRHDDSGEVVAESRREDLESYLGQRYPASDIPAQARRLYIQNPIRLIADVAYTPMRVFPALNPETNESFDLSYSVLRSVSPIHCEYLTNMGVRASMSISIVVGGKLWGLFSCHHMSPKLIPYPVRMSFQIFSQVCSAIVERLEQGRIAELLRVSTERRLALARRARDADDLFGALAHPDDGIAALIPCDGALVMLGGRTLSIRGDFERQAGNVLQRLQRDPERDIYHTDNWPQPSEDSPDGGDCCGVLAIRFHRQESGWIFWFRHEEVHRIRWGGKPEKLLTIGPSGPRLTPRGSFEAWEEVVRGHSTPWSETDLAIAEKLRLDLMELCLNHAAEVDRMRQRLIAVLGHDLRNPLQSISMAAALLSSSDTRTTELRQHISASSSRMERLVSQILDMSRLQSGIGLTVNPVDTDVSQLVRQIVCETDVAYPGLVIEIAIDPQVRAVVDPDRYAQVAANLLSNARHHGLPGRPVLVTLTRQGDEVCLSVLNETSGLSEAQLANLFEPFKRESADNQRNRNGLGIGLYISQAIAQAHQGRIDVDCRDDVITFCLRLPVRQAETGSSS”, the protein production entry was “failed”.

For the sequence “MTSLPTSLLGDLDPTSDRAVFRQIADQLREAIDRGRFKEGEKLPSEAELVEHYGVSRMTVRNSFSILQGEGLVHAEHGKGVFVRPRPPVRRLASDRFARRHREQGKSAFIVEADAAGSHPQVDSLEVKEEKASQDISTRLGSVRRVLARRRRYLLDGRPVEFATSYLPLDIARDTPIAEPNPGPGGIYARLEELGHRLDHFEEEIRARMPSPSEVKTLRLASGVPVIHLIRTAYDTEGRAVEVCDTVMAADAYVLSYQLPAT”, the protein production result was “failed”.

Turning to “MTSLSSKRVAETLDKLHAEAEAADRALMAEMMAQAERSGETLKDLAAKFVDEERLNYRTTYQEHADHFLAISSAYGRFLYAIARARRATRIVEFGTSMGISTIYLAAALRDNGGGRLIGSEIEPTKVARARAHLEATGLADLVDIREGDALDTLKDVGCEVDILSIDGAFSLYLPVLKLIEPRLTPGAVILGENAFAQDYLDYVRAPANGYFSRSLDIDEGRGNEFTVRVG”, the protein production entry is listed as “failed”.

Turning to “MTSPASCSPPNEKRTGSPFPPESRSLPSTMEMTMNTIFRPAPHPLPDAPFYTPLGNECVLFESAWVRQLPLLLKGPTGCGKTRFVSHMAAKLGLPLSTISCHDDLAAADLTGRYLLKGGETVWMDGPLTRSVRQGGICYLDEIVEARKDVAVVLHPLTDDRRILPLERTGEVLEAPSGFMLVVSYNPGYQNLLKSLKPSTRQRFVAIEFDFLPKEQEIAVVSHESGLDARDVEPLVDLAHRLRGLKGHDLEEGVSTRLLVYCASLIDTGLPARQAVRATMIEPLTDEPDVKAALHEVADAIIRLEHHHHHH”, the protein production entry is recorded as “failed”.

Regarding “MTSQVSSTTEQADEPVVGEQRKPAGAKDVRRLDRVIIRFAGDSGDGMQLTGDRFTSETASFGNDLSTLPNFPAEIRAPAGTLPGVSSFQLHFADHDILTPGDAPNVLVAMNPAALKANVSDLPRGAEVIVNTDEFTKRAMQKVGYGTSPLEDGSLDGYSVHPVPLTTLTVEALKEFELSRKEAERSKNMFALGLLSWMYHRPTEGTEKFLTTKFAKKPAIAAANIAAFRAGWNFGETTEDFAVSYEVAPAQSAFPAGTYRNISGNLALSYGLIAASRQADLPLYLGSYPITPASDILHELSKHKNFGVRTFQAEDEIAGIGAALGAAFGGSLAVTTTSGPGVALKSETIGLAVSLELPLLVVDIQRGGPSTGLPTKTEQADLLQAMYGRNGEAPVPVVAPRTPADCFEAAIEAARIALTYRTPVFLLSDGYLANGSEPWRIPETDGLPDLRVRFAQGPNHTLDDGTEVFWPYKRDPGTLARPWAIPGTPGLEHRIGGIEKQDGTGNISYDPANHDFMVRTRQAKIDGIDVPDIEVDDPDGASALVLGWGSTYGPITAAVRRLRTAGESIAQAHLRHLNPFPSNLGAVLKGYDKVVIPEMNLGQLATLIRAKYLVDAHSYNQVNGMPFKAEQLATALKEAIDD”, the protein production result is reported as “failed”.

In the case of “MTSSFTDYCKFFNRILSEVQETQEQAIIKGAHLVSEAVMNGGRFYVFGSGHSHMIAEEIYNRAGGLALVTAILPPELMLHERPNKSTYLERIEGLSKSYLKLHQVTNKDVIMIISNSGRNTVPVEMAIESRNIGAKVIAMTSMKHSQKVTSRHKSGKKLYEYADVVLDNGAPVGDAGFQIANSEIYSGATSDSIGCFLAQALIVETLHLLVQQGFEPPVFKSSNVDGADLYNDKIFNEYVKW”, the protein production result was “not failed”.

Consider “MTSSINSSPLNAIADQALGLDDAAVPAAIEPASDEPSFASLGLSPEIVSALEAAGYVKPTPVQQRAIPAGIAGRDLLVSSPTGSGKTAAFMLPAIERFAQLQKTLAQQPRTPREPSQGDRRVRRPQPVARPGLLVLTPTRELAMQVTTAASTYGKHLKRLRTVSILGGVAYGQQLMLLAKNPEILVATPGRLLDHLERGRIDLSELKMLVLDEADRMLDMGFIDDIETIVAATPASRQTMLFSATLDGKIGSLTGRLLKDPERIEIQQRLESRTNIAQTVHYVDDRDHKDRLLDHLLRDDALDQAIIFTATKIDADQLAGRLADAGFESAALHGDLPQGARNRTIRALRERRVRVLVATDVAARGIDIPGITHVFNYDLPKFAEDYVHRIGRTGRAGRSGTAVSLVHHAEQGALKRIERFVRSPLPVNVIEGFEPRKAPARTGSTGGRGRPGGGNGGRRFGGKPGGGHAGAGRSYGGGNGGGWSGKPSGSRDGGPRRDGQRSSGPRRSNSAS”, for which the protein production entry is “failed”.

For “MTTDAPALLPALQARVRETAHARTPAGCPCGAATLADRPDATVVRHAGTVAKAHAADADPAELSLRVTAAARLPGVLLPPLAPAPVDLHGRLVTYWPYGTPVDPEDPDAAPWEAAATLLARLHRTPVPAALPPMRGPAKAARAAARLSDTARDHPATAPVLAAWAALPAWARGEAAMPGPAALCHGDLHLGQLIRHPAPDGPWLLIDVDDLGTGVPAWDLARPAAWYACGLLPPEEWHRFLTAYRAAGGPAVPAEGDPWPALDVPARALTAQTAARAVAKAVLAGRALDEVERSLVDACARMASVRPADPRG”, the protein production result is recorded as “failed”.
